One test deals with mouse VEGF-A165 (mouse) (UniProt Q00731). The test can be described thus: ELISA with purified Fab (direct on coated antigen or solution binding), 25 C.
In test [1] the target is T1, murine VEGF (mVEGF) (mouse) (UniProt Q00731).
T1 sequence (looked up): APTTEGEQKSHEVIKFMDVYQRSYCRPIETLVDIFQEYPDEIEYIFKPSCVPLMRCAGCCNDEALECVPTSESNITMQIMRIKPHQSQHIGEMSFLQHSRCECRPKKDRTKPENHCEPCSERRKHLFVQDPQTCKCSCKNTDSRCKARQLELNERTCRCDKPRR
Briefly: method not stated, 25 C, unpublished results.

The text below walks through data of US20110020346A1.

Y0317 Fab, sequence (VH): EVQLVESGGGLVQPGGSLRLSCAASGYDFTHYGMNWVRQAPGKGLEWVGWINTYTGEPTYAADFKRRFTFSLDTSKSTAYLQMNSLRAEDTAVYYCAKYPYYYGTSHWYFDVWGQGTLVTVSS
Y0317 Fab, sequence (VL): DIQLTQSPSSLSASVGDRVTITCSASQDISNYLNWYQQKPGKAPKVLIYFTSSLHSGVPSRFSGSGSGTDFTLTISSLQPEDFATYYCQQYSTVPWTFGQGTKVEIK

For the substance G6 Fab, the value printed without a name (ELISA) with mouse VEGF-A165 (mouse) stood at 0.6 nM.
In general, Kd refers to the concentration at which binding is half-saturated. High values mean a looser complex, low ones a tighter complex. Consider Y0317 Fab, for which, in test [1], the dissociation constant Kd amounted to 300 nM.
